In the supplement of paper PMC11246515:
± gives the standard deviation of the averaged measurements.

Experiment: total protein half-life in vivo (active degradation + dilution); higher = more stable protein
[1] = E. coli NCM3722 delta-lon, growth: N-lim chemostat, doubling time 6 h
[2] = E. coli NCM3722 delta-smpB, growth: N-lim chemostat, doubling time 6 h
[3] = wild type E. coli NCM3722, growth: C-lim chemostat, doubling time 3 h
[4] = wild type E. coli NCM3722, growth: C-lim chemostat, doubling time 12 h
[5] = wild type E. coli NCM3722, growth: N-lim chemostat, doubling time 6 h
[6] = wild type E. coli NCM3722, growth: N-lim chemostat, doubling time 12 h
[7] = wild type E. coli NCM3722, growth: P-lim chemostat, doubling time 12 h
[8] = E. coli NCM3722 delta-clpP delta-lon delta-hslV, growth: N-lim chemostat, doubling time 6 h
[9] = E. coli NCM3722 delta-clpP, growth: N-lim chemostat, doubling time 6 h
[10] = E. coli NCM3722 delta-hslV, growth: N-lim chemostat, doubling time 6 h
[11] = wild type E. coli NCM3722, growth: C-lim chemostat, doubling time 6 h
[12] = wild type E. coli NCM3722, growth: P-lim chemostat, doubling time 6 h

| Sequence | total protein half-life in vivo [1] | total protein half-life in vivo [2] | total protein half-life in vivo [3] | total protein half-life in vivo [4] | total protein half-life in vivo [5] | total protein half-life in vivo [6] | total protein half-life in vivo [7] | total protein half-life in vivo [8] | total protein half-life in vivo [9] | total protein half-life in vivo [10] | total protein half-life in vivo [11] | total protein half-life in vivo [12] |
| --- | --- | --- | --- | --- | --- | --- | --- | --- | --- | --- | --- | --- |
| MSFSVDVLANIAIELQRGIGHQDRFQRLITTLRQVLECDASALLRYDSRQFIPLAIDGLAKDVLGRRFALEGHPRLEAIARAGDVVRFPADSELPDPYDGLIPGQESLKVHACVGLPLFAGQNLIGALTLDGMQPDQFDVFSDEELRLIAALAAGALSNALLIEQLESQNMLPGDATPFEAVKQTQMIGLSPGMTQLKKEIEIVAASDLNVLISGETGTGKELVAKAIHEASPRAVNPLVYLNCAALPESVAESELFGHVKGAFTGAISNRSGKFEMADNGTLFLDEIGELSLALQAKLLRVLQYGDIQRVGDDRCLRVDVRVLAATNRDLREEVLAGRFRADLFHRLSVFPLSVPPLRERGDDVILLAGYFCEQCRLRQGLSRVVLSAGARNLLQHYSFPGNVRELEHAIHRAVVLARATRSGDEVILEAQHFAFPEVTLPTPEVAAVPVVKQNLREATEAFQRETIRQALAQNHHNWAACARMLETDVANLHRLAKRLGLKD | 4.32 h | 3.19 ± 0.46 h | 2.33 h | 7.42 ± 0.3 h | 3.76 h | 5.2 ± 0.5 h | 7.35 ± 0.38 h | – | – | – | – | – |
| MANYFNTLNLRQQLAQLGKCRFMGRDEFADGASYLQGKKVVIVGCGAQGLNQGLNMRDSGLDISYALRKEAIAEKRASWRKATENGFKVGTYEELIPQADLVINLTPDKQHSDVVRTVQPLMKDGAALGYSHGFNIVEVGEQIRKDITVVMVAPKCPGTEVREEYKRGFGVPTLIAVHPENDPKGEGMAIAKAWAAATGGHRAGVLESSFVAEVKSDLMGEQTILCGMLQAGSLLCFDKLVEEGTDPAYAEKLIQFGWETITEALKQGGITLMMDRLSNPAKLRAYALSEQLKEIMAPLFQKHMDDIISGEFSSGMMADWANDDKKLLTWREETGKTAFETAPQYEGKIGEQEYFDKGVLMIAMVKAGVELAFETMVDSGIIEESAYYESLHELPLIANTIARKRLYEMNVVISDTAEYGNYLFSYACVPLLKPFMAELQPGDLGKAIPEGAVDNGQLRDVNEAIRSHAIEQVGKKLRGYMTDMKRIAVAG | 3.72 ± 0.042 h | 3.46 ± 0.06 h | 3.035 ± 0.013 h | 10.3 ± 0.33 h | 3.472 ± 0.017 h | 5.36 ± 0.15 h | 11.9 ± 0.2 h | 3.97 ± 0.51 h | 3.59 ± 0.64 h | 3.31 ± 0.22 h | 5.6 ± 0.11 h | 5.67 ± 0.26 h |
| MKLNDSNLFRQQALINGEWLDANNGEAIDVTNPANGDKLGSVPKMGADETRAAIDAANRALPAWRALTAKERATILRNWFNLMMEHQDDLARLMTLEQGKPLAEAKGEISYAASFIEWFAEEGKRIYGDTIPGHQADKRLIVIKQPIGVTAAITPWNFPAAMITRKAGPALAAGCTMVLKPASQTPFSALALAELAIRAGVPAGVFNVVTGSAGAVGNELTSNPLVRKLSFTGSTEIGRQLMEQCAKDIKKVSLELGGNAPFIVFDDADLDKAVEGALASKFRNAGQTCVCANRLYVQDGVYDRFAEKLQQAVSKLHIGDGLDNGVTIGPLIDEKAVAKVEEHIADALEKGARVVCGGKAHERGGNFFQPTILVDVPANAKVSKEETFGPLAPLFRFKDEADVIAQANDTEFGLAAYFYARDLSRVFRVGEALEYGIVGINTGIISNEVAPFGGIKASGLGREGSKYGIEDYLEIKYMCIGL | 4.251 ± 0.0095 h | 3.87 ± 0.14 h | 2.86 ± 0.26 h | 9.938 ± 0.016 h | 3.96 ± 0.29 h | 5.95 ± 0.61 h | 11 ± 0.44 h | 4.773 ± 0.035 h | 4.35 ± 0.32 h | 3.93 ± 0.08 h | 5.44 ± 0.58 h | 5.72 ± 0.12 h |
| MSKEHTTEHLRAELKSLSDTLEEVLSSSGEKSKEELSKIRSKAEQALKQSRYRLGETGDAIAKQTRVAAARADEYVRENPWTGVGIGAAIGVVLGVLLSRR | 6.206 ± 0.014 h | 4.81 ± 0.094 h | 2.81 ± 0.54 h | 9.35 ± 1.2 h | 5.47 ± 0.066 h | 9.88 ± 0.33 h | 10.7 ± 1.2 h | 5.56 ± 0.57 h | 6.08 ± 0.86 h | 5.45 ± 0.11 h | 5.64 ± 0.14 h | 5.55 ± 0.1 h |
| MKNNPLISIYMPTWNRQQLAIRAIKSVLRQDYSNWEMIIVDDCSTSWEQLQQYVTALNDPRITYIHNDINSGACAVRNQAIMLAQGEYITGIDDDDEWTPNRLSVFLAHKQQLVTHAFLYANDYVCQGEVYSQPASLPLYPKSPYSRRLFYKRNIIGNQVFTWAWRFKECLFDTELKAAQDYDIFLRMVVEYGEPWKVEEATQILHINHGEMQITSSPKKFSGYFHFYRKHKDKFDRASKKYQLFTLYQIRNKRMTWRTLLTLLSVRNGKRLADGIRGR | 2.71 ± 0.069 h | 1.7 ± 0.1 h | – | – | – | – | – | 3.18 h | – | – | – | – |
| MSIDFTPGIINTYHGDIYNCTTNTDNAKTPDTPKWPCDNWEEQQPINSTFSGEGYISDQYDLAQHQLQQINACHTNTTYTNADYSKVVAQLVSLITNIETISSTQLTQQTQSILNQINNIRYEKNKSAECRIIVIANPKPDKAIITKISVEEGIPITFSVQTMFSDTNFIAEQRADLPTNIKDIQSLYQKMTKLYIEHSENKNRMKVFAGTNFIDFNMTGQNLSGFVLTLSRFYFEDLLNINFTDANLGKVRISGEILLG | – | – | – | – | – | 8.68 h | 14.6 h | – | 5.86 h | – | – | – |
